# Read-outs that look alike come from different tables or passages of the source.
# B1: recombinant mIL12 (ligand, mouse)
# chain 1: RVIPVSGPARCLSQSRNLLKTTDDMVKTAREKLKHYSCTAEDIDHEDITRDQTSTLKTCLPLELHKNESCLATRETSSTTRGSCLPPQKTSLMMTLCLGSIYEDLKMYQTEFQAINAALQNHNHQQIILDKGMLVAIDELMQSLNHNGETLRQKPPVGEADPYRVKMKLCILLHAFSTRVVTINRVMGYLSSA
# chain 2: MWELEKDVYVVEVDWTPDAPGETVNLTCDTPEEDDITWTSDQRHGVIGSGKTLTITVKEFLDAGQYTCHKGGETLSHSHLLLHKKENGIWSTEILKNFKNKTFLKCEAPNYSGRFTCSWLVQRNMDLKFNIKSSSSSPDSRAVTCGMASLSAEKVTLDQRDYEKYSVSCQEDVTCPTAEETLPIELALEARQQNKYENYSTSFFIRDIIKPDPPKNLQMKPLKNSQVEVSWEYPDSWSTPHSYFSLKFFVRIQRKKEKMKETEEGCNQKGAFLVEKTSTEVQCKGGNVCVQAQDRYYNSSCSKWACVPCRVRS
# B2: Fc-p40-p35 x Fc (Fc fusion)
# chain 1: ESKYGPPCPPCPAPPVAGPSVFLFPPKPKDTLMISRTPEVTCVVVDVSQEDPEVQFNWYVDGVEVHNAKTKPREEQFNSTYRVVSVLTVLHQDWLNGKEYKCKVSNKGLPSSIEKTISKAKGQPREPQVYTLPPSQEEMTKNQVSLSCAVKGFYPSDIAVEWESNGQPENNYKTTPPVLDSDGSFFLVSRLTVDKSRWQEGNVFSCSVMHEALHNRFTQKSLSLSPGK
# chain 2: ESKYGPPCPPCPAPPVAGPSVFLFPPKPKDTLMISRTPEVTCVVVDVSQEDPEVQFNWYVDGVEVHNAKTKPREEQFNSTYRVVSVLTVLHQDWLNGKEYKCKVSNKGLPSSIEKTISKAKGQPREPQVYTLPPSQEEMTKNQVSLWCLVKGFYPSDIAVEWESNGQPENNYKTTPPVLDSDGSFFLYSRLTVDKSRWQEGNVFSCSVMHEALHNHYTQKSLSLSLGKGGGGSGGGGSGGGGSMWELEKDVYVVEVDWTPDAPGETVNLTCDTPEEDDITWTSDQRHGVIGSGKTLTITVKEFLDAGQYTCHKGGETLSHSHLLLHKKENGIWSTEILKNFKNKTFLKCEAPNYSGRFTCSWLVQRNMDLKFNIKSSSSSPDSRAVTCGMASLSAEKVTLDQRDYEKYSVSCQEDVTCPTAEETLPIELALEARQQNKYENYSTSFFIRDIIKPDPPKNLQMKPLKNSQVEVSWEYPDSWSTPHSYFSLKFFVRIQRKKEKMKETEEGCNQKGAFLVEKTSTEVQCKGGNVCVQAQDRYYNSSCSKWACVPCRVRSGGGGSGGGGSGGGGSRVIPVSGPARCLSQSRNLLKTTDDMVKTAREKLKHYSCTAEDIDHEDITRDQTSTLKTCLPLELHKNESCLATRETSSTTRGSCLPPQKTSLMMTLCLGSIYEDLKMYQTEFQAINAALQNHNHQQIILDKGMLVAIDELMQSLNHNGETLRQKPPVGEADPYRVKMKLCILLHAFSTRVVTINRVMGYLSSA
# notes: hIgG4s(HoleStar) x hIgG4s(Knob)-p40-p35, murine IL12; also called Fc-p40-p35×Fc control; unmasked monovalent control
# B3: Fc-p40-p35 x Fc-IL12Rβ2(D1) (Fc fusion)
# chain 1: ESKYGPPCPPCPAPPVAGPSVFLFPPKPKDTLMISRTPEVTCVVVDVSQEDPEVQFNWYVDGVEVHNAKTKPREEQFNSTYRVVSVLTVLHQDWLNGKEYKCKVSNKGLPSSIEKTISKAKGQPREPQVYTLPPSQEEMTKNQVSLSCAVKGFYPSDIAVEWESNGQPENNYKTTPPVLDSDGSFFLVSRLTVDKSRWQEGNVFSCSVMHEALHNRFTQKSLSLSPGKGGGGSGGGGSGGGGSNIDVCKLGTVTVQPAPVIPLGSAANISCSLNPKQGCSHYPSSNELILLKFVNDVLVENLHGKKVHDHTGHSSTFQVTNLSLGMTLFVCKLNCSNSQKKPPVPVCGVEISVGV
# chain 2: B2 chain 2
# notes: Receptor-masked monovalent murine IL12; also called hIgG4s(HoleStar)-mIL12Rb2(D1) x hIgG4s(Knob)-mIL12p40-p35
# B4: Fc-IL12Rβ1(D1)-p40-p35 x Fc (Fc fusion)
# chain 1: B2 chain 1
# chain 2: ESKYGPPCPPCPAPPVAGPSVFLFPPKPKDTLMISRTPEVTCVVVDVSQEDPEVQFNWYVDGVEVHNAKTKPREEQFNSTYRVVSVLTVLHQDWLNGKEYKCKVSNKGLPSSIEKTISKAKGQPREPQVYTLPPSQEEMTKNQVSLWCLVKGFYPSDIAVEWESNGQPENNYKTTPPVLDSDGSFFLYSRLTVDKSRWQEGNVFSCSVMHEALHNHYTQKSLSLSLGKGGGGSGGGGSGGGGSQLGASGPGDGCCVEKTSFPEGASGSPLGPRNLSCYRVSKTDYECSWQYDGPEDNVSHVLWCCFVPPNHTHTGQERCRYFSSGPDRTVQFWEQDGIPVLSKVNFWVESRLGNRTMKSQKISQYLYNWTKTTPPLGGGGSGGGGSGGGGSMWELEKDVYVVEVDWTPDAPGETVNLTCDTPEEDDITWTSDQRHGVIGSGKTLTITVKEFLDAGQYTCHKGGETLSHSHLLLHKKENGIWSTEILKNFKNKTFLKCEAPNYSGRFTCSWLVQRNMDLKFNIKSSSSSPDSRAVTCGMASLSAEKVTLDQRDYEKYSVSCQEDVTCPTAEETLPIELALEARQQNKYENYSTSFFIRDIIKPDPPKNLQMKPLKNSQVEVSWEYPDSWSTPHSYFSLKFFVRIQRKKEKMKETEEGCNQKGAFLVEKTSTEVQCKGGNVCVQAQDRYYNSSCSKWACVPCRVRSGGGGSGGGGSGGGGSRVIPVSGPARCLSQSRNLLKTTDDMVKTAREKLKHYSCTAEDIDHEDITRDQTSTLKTCLPLELHKNESCLATRETSSTTRGSCLPPQKTSLMMTLCLGSIYEDLKMYQTEFQAINAALQNHNHQQIILDKGMLVAIDELMQSLNHNGETLRQKPPVGEADPYRVKMKLCILLHAFSTRVVTINRVMGYLSSA
# notes: Receptor-masked monovalent murine IL12; also called Fc x Fc-mIL12Rb1(D1)-mIL12p40-p35
# B5: Fc-p40-p35 x Fc-IL12Rβ1(D1) (Fc fusion)
# chain 1: ESKYGPPCPPCPAPPVAGPSVFLFPPKPKDTLMISRTPEVTCVVVDVSQEDPEVQFNWYVDGVEVHNAKTKPREEQFNSTYRVVSVLTVLHQDWLNGKEYKCKVSNKGLPSSIEKTISKAKGQPREPQVYTLPPSQEEMTKNQVSLSCAVKGFYPSDIAVEWESNGQPENNYKTTPPVLDSDGSFFLVSRLTVDKSRWQEGNVFSCSVMHEALHNRFTQKSLSLSPGKGGGGSGGGGSGGGGSQLGASGPGDGCCVEKTSFPEGASGSPLGPRNLSCYRVSKTDYECSWQYDGPEDNVSHVLWCCFVPPNHTHTGQERCRYFSSGPDRTVQFWEQDGIPVLSKVNFWVESRLGNRTMKSQKISQYLYNWTKTTPPL
# chain 2: B2 chain 2
# notes: Receptor-masked monovalent murine IL12; also called hIgG4s(HoleStar)-mIL12Rb1(D1) x hIgG4s(Knob)-mIL12p40-p35
# Key:
# [1] = target: murine IL12 receptor complex (IL12Rβ1 and IL12Rβ2) (mouse) (UniProt Q60837); test: cell-based or functional assay
# murine IL12 receptor complex (IL12Rβ1 and IL12Rβ2) (mouse), sequence (Q60837 20-738, chain 1 of 2): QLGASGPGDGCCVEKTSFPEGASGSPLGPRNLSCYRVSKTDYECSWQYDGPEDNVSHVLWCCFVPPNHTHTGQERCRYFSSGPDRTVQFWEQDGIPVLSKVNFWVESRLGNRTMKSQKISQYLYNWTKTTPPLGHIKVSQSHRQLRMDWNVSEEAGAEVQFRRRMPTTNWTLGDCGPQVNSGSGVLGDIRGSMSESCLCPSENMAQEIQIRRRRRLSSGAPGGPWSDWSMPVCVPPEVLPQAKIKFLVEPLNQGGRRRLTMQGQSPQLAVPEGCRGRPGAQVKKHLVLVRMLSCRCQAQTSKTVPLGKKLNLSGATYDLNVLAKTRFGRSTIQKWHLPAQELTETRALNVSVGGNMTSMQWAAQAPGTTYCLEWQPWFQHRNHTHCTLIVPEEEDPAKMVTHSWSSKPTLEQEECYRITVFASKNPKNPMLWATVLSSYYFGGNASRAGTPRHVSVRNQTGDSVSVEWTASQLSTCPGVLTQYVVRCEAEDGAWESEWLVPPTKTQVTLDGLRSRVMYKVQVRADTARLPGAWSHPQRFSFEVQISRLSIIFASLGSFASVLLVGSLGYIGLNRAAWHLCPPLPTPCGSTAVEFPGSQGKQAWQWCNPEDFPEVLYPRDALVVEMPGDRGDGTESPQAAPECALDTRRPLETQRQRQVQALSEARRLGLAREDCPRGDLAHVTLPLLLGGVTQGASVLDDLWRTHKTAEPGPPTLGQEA
# murine IL12 receptor complex (IL12Rβ1 and IL12Rβ2) (mouse), sequence (P97378 24-874, chain 2 of 2, further chain): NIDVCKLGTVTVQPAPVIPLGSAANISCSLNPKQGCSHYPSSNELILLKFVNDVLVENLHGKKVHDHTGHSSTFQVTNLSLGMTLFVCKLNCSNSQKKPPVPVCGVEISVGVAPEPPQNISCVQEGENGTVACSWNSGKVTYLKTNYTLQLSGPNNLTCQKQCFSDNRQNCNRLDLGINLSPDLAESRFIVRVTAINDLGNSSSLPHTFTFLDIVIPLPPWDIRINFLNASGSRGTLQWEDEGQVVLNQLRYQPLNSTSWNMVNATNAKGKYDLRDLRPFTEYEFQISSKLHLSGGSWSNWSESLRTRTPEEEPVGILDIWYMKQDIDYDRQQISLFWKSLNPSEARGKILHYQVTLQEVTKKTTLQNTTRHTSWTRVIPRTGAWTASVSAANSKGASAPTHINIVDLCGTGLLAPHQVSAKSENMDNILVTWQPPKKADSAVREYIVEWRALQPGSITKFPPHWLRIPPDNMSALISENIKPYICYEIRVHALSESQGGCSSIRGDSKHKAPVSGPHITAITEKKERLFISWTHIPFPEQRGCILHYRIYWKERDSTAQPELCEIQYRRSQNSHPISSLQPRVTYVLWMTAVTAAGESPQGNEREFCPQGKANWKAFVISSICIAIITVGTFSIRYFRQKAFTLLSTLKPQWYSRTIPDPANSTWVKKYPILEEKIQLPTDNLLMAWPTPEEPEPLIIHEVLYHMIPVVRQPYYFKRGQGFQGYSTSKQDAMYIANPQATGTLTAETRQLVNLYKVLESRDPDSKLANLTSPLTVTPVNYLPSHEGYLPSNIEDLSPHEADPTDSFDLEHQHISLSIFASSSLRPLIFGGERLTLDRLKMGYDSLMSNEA
# [2] = target: murine IL12 receptor complex (IL12Rβ1 and IL12Rβ2) (mouse) (UniProt Q60837); test: cell-based or functional assay; remark: listed apart in the source
# [3] = target: murine IL12 receptor complex (IL12Rβ1 and IL12Rβ2) (mouse) (UniProt Q60837); test: cell-based or functional assay; remark: listed apart in the source
# [4] = target: T1, murine IL12 receptor complex (IL12Rβ1 and IL12Rβ2) (mouse, UniProt Q60837 20-738; P97378 24-874); test: flow cytometry on activated primary mouse T cells (CD25+ CD8+ CD90.2+), anti-human Fc detection, MFI
# T1 construct: whole, on cells; also called IL12 receptors beta 1 (IL12Rβ1) and beta 2 (IL12Rβ2); IL12Rb1 and IL12Rb2
# T1 sequence (Q60837 20-738, chain 1 of 2): as the sequence (Q60837 20-738, chain 1 of 2) above
# T1 sequence (P97378 24-874, chain 2 of 2): as the sequence (P97378 24-874, chain 2 of 2, further chain) above
# Procedure: Spleens were harvested from C57BL/6 mice and dissociated manually. Splenocytes were stimulated by culturing for 48 hours in RPMI+10% FBS+2 mM L-glutamine/Pen/Strep in the presence of anti-CD3 and anti-CD28 activation beads (Thermo/11456D) at a 1:3 (beads:splenocytes) ratio and in the presence of 30 U/mL human IL-2 (proleukin). […] Cells were washed once before plating 200,000 cells per well in a 96-well plate and staining indicated concentration of test IL12-Fc fusion proteins or variant molecules for 2 hours on ice. Cells were washed twice before staining for the Fc portion using an ahuFC antibody (Jackson Immuno 109-136-170). Data was acquired using a BD LSRFortessa™ X-20 instrument. Data plots represent geometric mean fluorescence intensity (MFI) of the ahuFC signal from CD25+, CD8+CD90.2+ T cells.
binder,measurement,setting,value
B1,"EC50 (M); STAT3-Luc reporter, CTLL2/STAT3-Luc cells",[1],5.56e-11 M
same,"Fold induction at 6.25 nM; STAT3-Luc reporter, CTLL2/STAT3-Luc cells",[1],12.2 fold
same,"Max fold induction; STAT3-Luc reporter, CTLL2/STAT3-Luc cells",[1],12.4 fold
same,"EC50 (M); STAT3-Luc reporter, CTLL2/STAT3-Luc cells",[2],3.46e-11 M
same,"Fold induction at 20 nM; STAT3-Luc reporter, CTLL2/STAT3-Luc cells",[2],18.8 fold
same,"Max fold induction; STAT3-Luc reporter, CTLL2/STAT3-Luc cells",[2],19.1 fold
same,"EC50 (M); STAT3-Luc reporter, CTLL2/STAT3-Luc cells",[3],3.71e-10 M
same,"Max fold induction; STAT3-Luc reporter, CTLL2/STAT3-Luc cells",[3],17.8 fold
B2,binding result,[4],binds
B3,binding result,[4],binds
B4,binding result,[4],binds
B5,binding result,[4],binds
